Results taken from the DeepSol protein solubility set.

Experiment: soluble on expression in E. coli; label from the status in PepcDB or PDB records

Sequence	soluble on expression in E. coli
MGSDKIHHHHHHMATELPSLKGLQAFEAAARYRSVTLASNELNVTPGAVSLQIRELEARLGVQLFFRKPRSIQLTREGERYYGALRTAFRMMREATAELTARSEITVLTLSCTPTFAVQWLMPRLPSFQQQHPHVDVRISVTNRLVDFSRDDVDLAVRHGFGRYEGLESIRFIDDSTLPVCAPQLLEKYGPLREAGDLKSVPLLHDENRNEWRRWLEAAGASEVDASGGTVFIDSNGALDAAKAGHGIALTRRSLVSRELVEGALIAPFGTDMASTLAYFLVYPRRMLDNPDLVTLIDWMLSQAGSTEAGSL	not soluble
MARATTKQDLIMASNGQFEKLWVLIDGMSDDLQNATFADQMATAGKEAHWGRDKNLRDVLVHLYEWHQLLLNWINSNSKGERKPFLPEPYNWKTYSVMNVEFWKKHQQTPLAEAKDKLKESHRQVMALIETFSNDELFAKGVFDWTDTSTLGAYCVSATSSHYDWAMKKIKLHIKTGK	not soluble
MNNVFVYCEIEGTTVADVSLELLTKGRKLANQLGCQLEAIAAGTGLAGIEKQVLPYGVDKLHVFDAPGLFPYTSLPHTSILVNLFKEEKPQICLMGATVIGRDLGPRVSSALTSGLTADCTQLEIGTHEDKKNGITYENLLYQIRPAFGGNIVATIVNPEHRPQMATVREGVMKKEILDENYKGEVVNHDVAKFVPETDYVV	not soluble
MSLKALIFDMDGVLVDSMPFHAAAWKKAFLEMGMEIQDEDIYAIEGSNPRNGLPLLIRKARKEPEDFDFEAITSIYRQEFNRIFKLKAFDGMKECLEFLKSRFLLSVVSGSDRLIVNGIVDQLFPGIFDTVVTGDDVLNSKPDPDPFLKAVELLNVGKEECVVIENAVLGVEAAKKADIYCIGVPTYVKPSELDRADLVVGNHQKLMEHLLSLEPLFSPEFIPGRREGHHHHHH	soluble
MGSDKIHHHHHHMGTDPIEARFEQLNVWRNGDKRAPHKPLLILLALASWQRGAREMRFAECEQKLGELIREFGPAAKAVHPEYPFWRLQNDGLWVVEADQEMRTRQSNSDPLKSELRAAGARGHFFADVAEELERRPALIGRVAQRVLDAHFPETLHEDILAAVGLEVSEETESTTRRRRDPNFRNAVLQAYQYRCAVCELDLRIGSITVGLEAAHVKWHQARGPDAVHNGVALCSLHHKLFDLGAFHIGADRRILVSEQVHGTSRFEEVLLRHHGALALEPVRSEHKVLRDFVGWHFDQVFKKEARPAT	not soluble
MRKSLEIGKCVVLEVLTPRGTNLGRFMEFTEEAWKTGIDAFTVTDMPMGRVRMAPWAASHLLVESGKDVLMHFTRNTRNMIRIQSDLLGCHALGVKNLLLLSGDNPSHGDYPETTSVNDIDILDLIRLTKLMNEGTDLAGNKIYGKTDFFVGGALNPFSDKDIKRAKQKIEAGVDFLVTQPLFNSEVAKKIKEELNTKILASIVFFENAKQMSYFSSVPGIEIPDEIVNSTEKGDDYLKEKSFESVLRFVEETKGVLDGFYIVAIVKDLEKIRKVVEIAKS	not soluble
MGSDKIHHHHHHMIKVGQTTEVENFLSNHPEVEAIDVLISDLVGFARGKRIEKSSLEKIYSSGLNMPATIFSMNVLGETIEECGLGQDIGEPDMVCKPIANTLHMASWHDRPIAQVLMSMFNHDGTPFFADPRNILSNVVRQLAEINLYPVVAVELEFYLLDKNKDNKGNLQAPISPKTGKRDEHTQVYSVDTLNDYSALLDDINRVCIEQNVPADTAVAECAPGQFEINLKHEADPVAACDNAILLKRIIKTVADKHNFDATFMAKPYSNEAGSGMHVHASLLDECGNNVFADEHNDYNETLEHAIGGMLELMPASMPLLCPNVNSYRRFMPGYYVAMAKNWGVDNRTVALRLPRGHKNATRIEHRVSGADANPYLVMAVILASIHHGITNKIKPINPTVGNAFDDDCEALPLKLDRALAELEKDQILTSYLGEEFTKNYHTVKQKELEQFDMHISELEVKWYLSNS	not soluble
MLTIEPPSATFPASGGSSTHTITSVNESRMAFKVKSSNNEHYRVRPVYGFVEARGKMKFEIIRLEGPVKDDKIMLQYAEVPADETDAQAPFKAGAQQGDVTILLKTN	not soluble
MCENLYGEEYKMEILRLQKMMNNMTCGQMAKPLTMKDFQIHQALGKGAYGNVYRVRSLHDGKDYALKQIMISSKNEGIPQSVLREITVMKHLARKAHPNIISLKSVFHQLDPVRAILKINMIMERCDWDLHTFLRNIPRGVPEQQAKHVTAQIVRALDFLHTHSIIHRDLKPQNILLNRDQTVKLADFGLSKEYSNTTAFTTLVVTLWYRSPEVLLQSYYNSTVDMWALGCIVSEIYCRQPLFVGQNEAEQLTDIFKKMGTPVGKDWPSESVIARDSFPQYRPTNLKDLSPQMSKQAIEFVQQCLRYDHSKRLSARGALSHPFLKPAVATKSRVLKQINFNK	not soluble
MSEFWLISAPGDKENLQALERMNNVTSKSNLSHNTKFAIPDFKVGTLDSLVGLSDELGKLDTFAESLIKRMAQSVVEVMEDSKGKAHETLLANGVDLTSFVTHFEWDMAKYPAKQPLVSVVDTLAKQLAQIETDLKSRTAAYSVLKANLENLEKRSTGNLFTRTLSDIVSKEDFVLDSEYLITLLVIVPKSSFAQWQKTYESLSDMVVPRSTKLIAEDNEGGLFTVTLFRKVIEDFKVKAKENKFIVREFYYDEKEIKREREEMTRLLSDKKQQYPTSCVALKKGSATYRDHKVKVAPLGNPARPAAGQTDRDRESEGEGEGPLLRWLKVNFSEAFIAWIHIKALRVFVESVLRYGLPVNFQAVLLQPHKKSATKRLREVLNSVFRHLDEVAAASILDASVEIPGLQLSNQDYFPYVYFHIDLSLLD	soluble
SSQQIYGVKYGNVTFHVPSNQPLKEVLWKKQKDKVAELENSEFRAFSSFKNRVYLDTKSGSLTIYNLTSSDEDEYEMESPNITDSMKFFLYVGES	soluble
GHEIKDIREDTMHAEFNALRAQVAINDGNPDEAERLAKLALEELPPGWFYSRIVATSVLGEVLHCKGELTRSLALMQQTEQMARQHDVWHYALWSLIQQSEILFAQGFLQTAWETQEKAFQLINEQHLEQLPMHEFLVRIRAQLLWAWARLDEAEASARSGIEVLSSYQPQQQLQCLAMLIQCSLARGDLDNARSQLNRLENLLGNGKYHSDWISNANKVRVIYWQMTGDKAAAANWLRHTAKPEFANNHFLQGQWRNIARAQILLGEFEPAEIVLEELNENARSLRLMSDLNRNLLLLNQLYWQAGRKSDAQRVLLDALKLANRTGFISHFVIEGEAMAQQLRQLIQLNTLPELEQHRAQRILREINQHHGA	soluble
MSSEEDKSVEQPQPPPPPPEEPGAPAPSPAAADKRPRGRPRKDGASPFQRARKKPRSRGKTAVEDEDSMDGLETTETETIVETAEIKEQSAEEDAEAEVDNSKQLIPTLQRSVSEESANSLVSVGVEAKISEQLCAFCYCGEKSSLGQGDLKQFRITPGFILPWRNQPSNKKDIDDNSNGTYEKMQNSAPRKQRGQRKERSPQQNIVSCVSVSTQTASDDQAGKLWDELSLVGLPDAIDIQALFDSTGTCWAHHRCVEWSLGVCQMEEPLLVNVDKAVVSGSTERCAFCKHLGATIKCCEEKCTQMYHYPCAAGAGTFQDFSHIFLLCPEHIDQAPERSKEDANCAVCDSPGDLLDQFFCTTCGQHYHGMCLDIAVTPLKRAGWQCPECKVCQNCKQSGEDSKMLVCDTCDKGYHTFCLQPVMKSVPTNGWKCKNCRICIECGTRSSSQWHHNCLICDNCYQQQDNLCPFCGKCYHPELQKDMLHCNMCKR	not soluble
SLQTEESICTKIMKELHSEDSPNALVIKNEHVKKCDTWPSGGEMVVKDLTVKYVDDGNAILENISFSISPGQRVGLLGRTGSGKSTLLSAFLRMLNIKGEIQIDGVSWNSMTLQEWRKAFGVITQKVFIFSGTFRQNLDPNGKWRDEEIWKVADQVGLKSVIEQFPGQLNFTLVDGGYVLSHGHKQLMCLARSVLSKAKIILLDQPSANLDPITYQVIRRVLRQAFAGCTVVLCEHRIEAMLDCQRFLVIEQGNVWQYESLQALLSEKSVFQRALSSSEKMKLFHGRHSSKQKPRTQITAVKEETEEEVQETRL	not soluble
